Measured values from US20250346679A1 (INVOX PHARMA, published 2025).

T1: mouse FcRn (R&D systems, 9114-Fc) (mouse, UniProt Q61559 22-297; P01887 21-119, limits assumed)
T1 sequence (looked up) 1: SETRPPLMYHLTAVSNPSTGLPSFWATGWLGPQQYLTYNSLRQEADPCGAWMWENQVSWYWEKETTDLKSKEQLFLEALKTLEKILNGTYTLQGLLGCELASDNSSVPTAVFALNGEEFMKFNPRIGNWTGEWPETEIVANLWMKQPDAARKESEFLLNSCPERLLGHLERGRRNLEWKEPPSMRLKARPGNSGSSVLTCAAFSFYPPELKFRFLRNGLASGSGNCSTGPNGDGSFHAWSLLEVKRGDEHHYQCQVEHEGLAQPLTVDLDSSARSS
T1 sequence (looked up) 2: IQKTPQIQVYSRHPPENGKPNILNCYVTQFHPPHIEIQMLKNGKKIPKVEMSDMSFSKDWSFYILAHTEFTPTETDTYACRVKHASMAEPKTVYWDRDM

T2: cynomolgus CD137, cell-surface (cynomolgus, UniProt Q07011 24-255 (human entry))
T2 chain: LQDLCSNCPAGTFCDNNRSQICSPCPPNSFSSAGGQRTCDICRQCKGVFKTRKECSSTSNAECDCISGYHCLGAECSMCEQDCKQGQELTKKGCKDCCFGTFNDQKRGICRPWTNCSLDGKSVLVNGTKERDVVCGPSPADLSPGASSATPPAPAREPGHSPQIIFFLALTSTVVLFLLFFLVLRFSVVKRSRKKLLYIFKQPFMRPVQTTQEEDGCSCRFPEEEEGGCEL

T3: cCD137-mFc-Avi (cynomolgus; mouse)
T3 construct: also called cynomolgus CD137-mFc-Avi; Cyno CD137-mFc-Avi; not shown: mouse IgG2a Fc domain (mIgG2a Fc)
T3 chain: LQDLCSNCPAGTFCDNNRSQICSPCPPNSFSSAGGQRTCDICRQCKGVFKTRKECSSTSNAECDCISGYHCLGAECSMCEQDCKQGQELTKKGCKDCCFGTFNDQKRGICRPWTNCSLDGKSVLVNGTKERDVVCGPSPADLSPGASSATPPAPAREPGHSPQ


What was measured:
[1] = target: T4, human CD137, cell-surface (human, UniProt Q07011 24-255); experiment: cell-based or functional assay
[2] = target: T4, human CD137, cell-surface; experiment: cell-based or functional assay; remark: listed apart in the source
[3] = target: T4, human CD137, cell-surface; experiment: cell-based or functional assay; remark: listed apart in the source
[4] = target: T4, human CD137, cell-surface; experiment: cell-based or functional assay; remark: listed apart in the source
[5] = target: T4, human CD137, cell-surface; experiment: cell-based or functional assay; remark: listed apart in the source
[6] = target: Human FcRn (Acro Biosystems, FCM-H5286) (human, UniProt P55899 24-297; P61769 21-119); experiment: SPR, mAb^2 immobilised, FcRn in flow, pH 6.0, steady state affinity; pH 6.0
Excerpt: (§1) The neonatal Fc receptor (FcRn) binding is critical for antibody recycling (Martins et al., 2016). […] G1-AA/HeID1.3 was included as an isotype control IgG control lacking mutations in the CH3 domain.
(§2) Briefly, mAb² were individually coated on flow cell 2, 3 and 4 of Series S Sensor Chip CM5 (GE Healthcare, BR100530) to achieve a response of approximately 1000 RU. Flow cell 1 was activated/deactivated but left blank as a reference. Human FcRn (Acro Biosystems, FCM-H5286) or mouse FcRn (R&D systems, 9114-Fc) was dialysed and diluted in MHBS-EP⁺B pH 6.0 or pH 7.4 buffer (10 mM MES, FortéBio, 18-5026; 1×HBS-EP, GE Healthcare, BR100669; 0.1 mg/ml BSA, Sigma, A7906) and injected on flow cell 1, 2, 3 and 4 at 2000-3000 nM with 2-fold dilutions for 1 min at 80 μl/min and then allowed to dissociate in buffer for 3 min. […] Subtracted data (flow cell 2−flow cell 1, flow cell 3−flow cell 1, or flow cell 4−flow cell 1) was analysed using Biacore T200 Evaluation Software 2.0 to identify binding using the model steady state affinity.

[7] = target: T1, mouse FcRn (R&D systems, 9114-Fc); experiment: as above
Excerpt: as §1, §2

[8] = target: human PD-L1, cell-surface (human, UniProt Q9NZQ7 19-290); experiment: cell-based or functional assay
[9] = target: T2, cynomolgus CD137, cell-surface; experiment: cell-based or functional assay
[10] = target: T5, cPD-L1-His (Acro Biosystems, PD1-C52H4) (cynomolgus, UniProt Q9NZQ7 19-238 (human entry)); experiment: SPR, mAb^2 captured on Protein A chip, antigen in flow
T5 construct: bought; also called Cyno PD-L1-His; Cynomolgus PD-L1-His; not shown: His tag of the bought product
Experimental: (§3) Briefly, the anti-human CD137/PD-L1 mAb², diluted in HBS-EP buffer (GE Healthcare, BR100188) at 2 μg/ml, were injected individually on flows cell 2, 3 and 4 of a Protein A chip (GE Healthcare, 29127556) at 30 μl/min to achieve a final response of approximately 110 RU. Two different recombinant human PD-L1 antigens were used i.e. hPD-L1-His-Avi (see Example 1.3 for antigen details) and biotinylated hPD-L1-Avi-His (Acrobiosystems, PD-1-H82E5). Human and cynomolgus PD-L1-His (Acrobiosystems, PD-1-C52H4) antigens, diluted in HBS-EP buffer, were injected on flow cell 1, 2, 3 or 4 as appropriate at a concentration range of 81 nM to 0.037 nM with 3-fold dilutions for 4 min at 75 μl/min and then allowed to dissociate in buffer for 10 min. Regeneration was achieved by injecting 10 mM glycine-HCL pH1.5 (GE Healthcare, Human Antibody Capture Kit, BR00356) for 30 sec at a rate of 30 μl/min. Subtracted data (flow cell 2−flow cell 1, flow cell 3−flow cell 1, or flow cell 4−flow cell 1) were analysed using BIAevaluation 3.2 Software (GE Healthcare) to identify binding using the model 1:1 binding with mass transfer, with refractive index (RI) constant 0.

[11] = target: T6, biotinylated hPD-L1-Avi-His (Acro Biosystems, PD1-H82E5) (human, UniProt Q9NZQ7 19-238, biotinylated); experiment: as above
T6 construct: bought; also called Human PD-L1-His; not shown: Avi and His tags of the bought product
Experimental: as §3

[12] = target: T7, hCD137-mFc-Avi (human; mouse, UniProt Q07011 24-186, biotin on the Avi sequence where the biotinylated form was used); experiment: SPR, mAb^2 captured by anti-human Fab, antigen in flow
T7 construct: also called human CD137-mFc-Avi; dimeric human CD137; not shown: mouse IgG2a Fc domain (mIgG2a Fc)
Experimental: (§4) The binding of the anti-human CD137/PD-L1 mAb² to recombinant dimeric human and cynomolgus CD137 antigens was also measured by SPR using a Biacore T200 processing unit (GE Healthcare).
(§5) Briefly, 20 μg/ml anti-human Fab antibody (GE Healthcare, Human Fab Capture kit 28958325) was coated on flow cells 1, 2, 3 and 4 of a Biacore sensor S chip CM5 (GE Healthcare, BR100530) achieving a final response of approximately 5000 RU. […] The recombinant dimeric antigens, human CD137-mFc-Avi or cynomolgus CD137-mFc-Avi (see Example 1.1 for antigen details) diluted in HBS-EP buffer, were injected on flow cell 1, 2, 3 or 4 as appropriate at a concentration range of 81 nM to 0.037 nM with 3-fold dilutions for 4 minutes at 70 μl/min and then allowed to dissociate in buffer for 10 minutes. Regeneration was achieved by injecting 10 mM glycine pH 2.1 (GE Healthcare, Human Fab Capture kit 28958325) for 60 seconds at a rate of 30 μl/min. Data analysis was performed as described in Example 9.1.

[13] = target: T3, cCD137-mFc-Avi; experiment: as above
Experimental: as §4, §5

[14] = target: T8, hPD-L1-rCD4-His (human); experiment: SPR, culture supernatants
T8 construct: also called human PD-L1-rCD4-His; hu-PD-L1-rCD4-His
T8 sequence (chain, as listed by the source): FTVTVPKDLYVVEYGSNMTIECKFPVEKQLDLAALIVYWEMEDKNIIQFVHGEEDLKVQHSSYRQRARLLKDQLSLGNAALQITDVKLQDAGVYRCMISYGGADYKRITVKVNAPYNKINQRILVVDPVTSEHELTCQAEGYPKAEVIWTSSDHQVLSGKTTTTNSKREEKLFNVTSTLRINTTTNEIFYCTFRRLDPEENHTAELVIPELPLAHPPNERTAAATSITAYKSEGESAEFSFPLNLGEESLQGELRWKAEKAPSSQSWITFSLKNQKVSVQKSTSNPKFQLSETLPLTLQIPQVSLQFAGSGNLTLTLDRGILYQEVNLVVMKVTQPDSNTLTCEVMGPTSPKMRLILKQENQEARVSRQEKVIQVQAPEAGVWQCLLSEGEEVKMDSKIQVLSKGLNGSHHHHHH

T5 sequence (Q9NZQ7 other isoform, or with tags, fused parts or gaps): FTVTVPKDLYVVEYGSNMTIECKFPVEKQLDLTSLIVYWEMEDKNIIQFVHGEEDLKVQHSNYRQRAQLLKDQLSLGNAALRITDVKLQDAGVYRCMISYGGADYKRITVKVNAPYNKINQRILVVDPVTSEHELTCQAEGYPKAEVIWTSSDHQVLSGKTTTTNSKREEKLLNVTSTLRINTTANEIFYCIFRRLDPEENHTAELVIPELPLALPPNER
T6 sequence (Q9NZQ7 19-238): as the sequence (Q9NZQ7 other isoform, or with tags, fused parts or gaps) above, with T33A, S34A, N62S, Q68R, R82Q, L173F, A185T, I192T, L215H counted along it
human PD-L1, cell-surface, sequence (Q9NZQ7 19-290): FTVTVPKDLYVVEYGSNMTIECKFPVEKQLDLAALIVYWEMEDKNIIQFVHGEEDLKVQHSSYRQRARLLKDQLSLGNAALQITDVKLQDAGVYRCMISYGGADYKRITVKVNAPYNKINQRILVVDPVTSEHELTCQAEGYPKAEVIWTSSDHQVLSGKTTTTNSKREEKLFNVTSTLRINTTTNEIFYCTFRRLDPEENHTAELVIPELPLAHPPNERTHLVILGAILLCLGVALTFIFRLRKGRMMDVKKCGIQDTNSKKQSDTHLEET
Human FcRn (Acro Biosystems, FCM-H5286), sequence (P55899 24-297 limits assumed, chain 1 of 2): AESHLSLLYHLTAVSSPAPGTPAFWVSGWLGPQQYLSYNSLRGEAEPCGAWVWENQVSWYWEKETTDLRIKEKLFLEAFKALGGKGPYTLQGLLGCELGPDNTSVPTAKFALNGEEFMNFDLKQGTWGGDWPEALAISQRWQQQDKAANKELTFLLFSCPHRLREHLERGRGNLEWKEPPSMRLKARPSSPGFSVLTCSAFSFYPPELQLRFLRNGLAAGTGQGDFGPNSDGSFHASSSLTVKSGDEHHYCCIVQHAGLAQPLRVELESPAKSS
Human FcRn (Acro Biosystems, FCM-H5286), sequence (P61769 21-119 limits assumed, chain 2 of 2): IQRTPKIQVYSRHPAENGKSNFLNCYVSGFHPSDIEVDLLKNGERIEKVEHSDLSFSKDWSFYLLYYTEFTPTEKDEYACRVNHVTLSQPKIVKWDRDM
T7 sequence (Q07011 24-186): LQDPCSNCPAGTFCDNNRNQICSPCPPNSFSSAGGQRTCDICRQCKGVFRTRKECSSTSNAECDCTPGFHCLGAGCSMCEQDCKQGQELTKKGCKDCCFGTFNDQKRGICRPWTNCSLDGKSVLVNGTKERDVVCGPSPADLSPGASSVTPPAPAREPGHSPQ

| Binder | Kd [6] [nM] | Kd [7] [nM] | EC50 (nM) (crosslinked), mIL-2 release, DO11.10.cCD137 with HEK.cyPD-L1 [9] | Emax (pg/ml) (crosslinked), mIL-2 release, DO11.10.cCD137 with HEK.cyPD-L1 [9] [pg/mL] | Kd [10] [nM] | Kd [11] [nM] | Kd [12] [nM] | Kd [13] [nM] | further results |
| --- | --- | --- | --- | --- | --- | --- | --- | --- | --- |
| G1-AA/20H4.9 (antibody, V domains shown) VH: QVQLQQWGAGLLKPSETLSLTCAVYGGSFSGYYWSWIRQSPEKGLEWIGEINHGGYVTYNPSLESRVTISVDTSKNQFSLKLSSVTAADTAVYYCARDYGPGNYDWYFDLWGRGTLVTVSS VL: EIVLTQSPATLSLSPGERATLSCRASQSVSSYLAWYQQKPGQAPRLLIYDASNRATGIPARFSGSGSGTDFTLTISSLEPEDFAVYYCQQRSNWPPALTFGGGTKVEIKR | – | – | – | – | – | – | – | – | EC50 (nM), IFN-γ release, CEF antigen recall assay, crosslinked with anti-human CH2 [1]: 0.33 nM; Emax (pg/ml), IFN-γ release, CEFT antigen recall assay, crosslinked with anti-human CH2 (EC50 N/A) [2]: 13000 pg/mL; EC50 (nM), hIL-2 release, CD8+ T cells, donor 171115A, HEK.hPD-L1 assay, crosslinked with anti-hCH2 [3]: 0.21 nM; EC50 (nM), hIL-2 release, CD8+ T cells, donor 171115A, MDA-MB-231 assay, crosslinked with anti-hCH2 [3]: 0.31 nM; EC50 (nM), hIL-2 release, CD8+ T cells, donor 171115B, HEK.hPD-L1 assay, crosslinked with anti-hCH2 [3]: 0.29 nM; EC50 (nM), hIL-2 release, CD8+ T cells, donor 171115B, MDA-MB-231 assay, crosslinked with anti-hCH2 [3]: 0.28 nM; EC50, hIL-2 release, primary human CD8+ T cells, crosslinked with anti-hCH2 [4]: 0.5 nM; EC50 (nM), IFN-γ release, human MLR, crosslinked with anti-human CH2 [5]: 1.9 nM |
| FS22-053-008-AA/E12v2 (bispecific antibody, human IgG1, kappa, L234A L235A) heavy: EVQLVQSGAEVKRPGASVKVSCKASGYPFTSYGISWVRQAPGQGLEWMGWISAYSGGTNYAQKLQGRVTMTTDTSTSTAYMELRSLRSDDTAVYYCARDLFPTIFGVSYYYYWGQGTLVTVSSASTKGPSVFPLAPSSKSTSGGTAALGCLVKDYFPEPVTVSWNSGALTSGVHTFPAVLQSSGLYSLSSVVTVPSSSLGTQTYICNVNHKPSNTKVDKKVEPKSCDKTHTCPPCPAPEAAGGPSVFLFPPKPKDTLMISRTPEVTCVVVDVSHEDPEVKFNWYVDGVEVHNAKTKPREEQYNSTYRVVSVLTVLHQDWLNGKEYKCKVSNKALPAPIEKTISKAKGQPREPQVYTLPPSRDELNPPYLFSNQVSLTCLVKGFYPSDIAVEWESNGQPENNYKTTPPVLDSDGSFFLYSKLTVDYWRWLEGNVFSCSVMHEALHNHYTQKSLSLSPG light: DIQMTQSPSTLSASVRDRVIITCRASQSIGNRLAWYQHKPGKAPKLLIYEASTSETGVPSRFSGSGSGTDFTLTISSLQPEDFATYYCQQSYSTPYTFGQGTKLEIKRTVAAPSVFIFPPSDEQLKSGTASVVCLLNNFYPREAKVQWKVDNALQSGNSQESVTEQDSKDSTYSLSSTLTLSKADYEKHKVYACEVTHQGLSSPVTKSFNRGEC | 998 | 177 | 0.08 | 9010 | 0.25 | 0.19 | 2.6 | 0.6 | EC50 (nM), IFN-γ release, human MLR [8]: 0.04 nM; Emax (pg/ml), IFN-γ release, human MLR [8]: 3130 pg/mL; EC50 (nM), hIL-2 release, CD8+ T cells, donor 171115A, HEK.hPD-L1 XL [3]: 0.1 nM; EC50 (nM), hIL-2 release, CD8+ T cells, donor 171115A, MDA-MB-231 XL [3]: 0.01 nM; EC50 (nM), hIL-2 release, CD8+ T cells, donor 171115B, HEK.hPD-L1 XL [3]: 0.11 nM; EC50 (nM), hIL-2 release, CD8+ T cells, donor 171115B, MDA-MB-231 XL [3]: 0.02 nM |
| G1/929_01_A08 (antibody, IgG1, V domains shown, IgG1 without LALA; SGGT variant of G1/894_08_E05, became G1-AA/E05v2 with LALA) VH: EVQLVQSGAEVKRPGASVKVSCKASGYTFTSYGISWVRQAPGQGLEWMGWISAYSGGTNYAQKLQGRVTMTTDTSTSTAYMELRSLRSDDTAVYYCARDLFPTIFGVSYYYYWGQGTLVTVSS VL: DIQMTQSPSTLSASVGDRVTITCRASQSISGRLAWYQQKPGKAPNLLIYEASNLESGVPSRFSGSGSGTEFTLTISSLQPEDFATYYCQQSYSTPRVTFGQGTKVEIK | – | – | – | – | – | – | – | – | binding result [14]: binds |
| FS22-172-003-AA/lam-G02v3 (bispecific antibody, human IgG1, L234A L235A, see recheck) heavy: EVQLVQSGAEVKRPGASVKVSCKASGYTFTSYGISWVRQAPGQGLEWMGWISAYSGGTNYAQKLQGRVTMTTDTSTSTAYMELRSLRSDDTAVYYCARDLFPTIFGVSYYYYWGQGTLVTVSSASTKGPSVFPLAPSSKSTSGGTAALGCLVKDYFPEPVTVSWNSGALTSGVHTFPAVLQSSGLYSLSSVVTVPSSSLGTQTYICNVNHKPSNTKVDKKVEPKSCDKTHTCPPCPAPEAAGGPSVFLFPPKPKDTLMISRTPEVTCVVVDVSHEDPEVKFNWYVDGVEVHNAKTKPREEQYNSTYRVVSVLTVLHQDWLNGKEYKCKVSNKALPAPIEKTISKAKGQPREPQVYTLPPSRDELPYIIPPYNQVSLTCLVKGFYPSDIAVEWESNGQPENNYKTTPPVLDSDGSFFLYSKLTVGADRWLEGNVFSCSVMHEALHNHYTQKSLSLSPG light: QSALTQPASVSGSPGQSITISCTGTSSDVGGYNYVSWYQQFPGKAPKLMIFEVTNRPSGVSDRFSGSKSDNTASLTISGLQAEDEAEYYCSSFKRGSTLVVFGGGTKLTVLGQPAAAPSVTLFPPSSEELQANKATLVCLISDFYPGAVTVAWKADSSPVKAGVETTTPSKQSNNKYAASSYLSLTPEQWKSHRSYSCQVTHEGSTVEKTVAPTECS | 1220 | 167 | 0.08 | 12300 | 1.91 | 1.54 | 1.3 | 2.2 | – |
